Test results taken from US20260132190A1 (Eli Lilly, published 2026).

Legend:
human IL-34 [1] = target: T1, human IL-34 (human, UniProt Q6ZMJ4 21-242); assay: cell-based or functional assay
T1 sequence: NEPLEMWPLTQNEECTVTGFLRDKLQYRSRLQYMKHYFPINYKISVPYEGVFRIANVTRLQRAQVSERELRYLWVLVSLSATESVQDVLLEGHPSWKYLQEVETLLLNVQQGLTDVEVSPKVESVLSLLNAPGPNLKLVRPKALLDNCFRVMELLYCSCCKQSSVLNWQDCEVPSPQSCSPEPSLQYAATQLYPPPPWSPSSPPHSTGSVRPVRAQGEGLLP

human IL-34 [2] = target: T1, human IL-34; assay: SPR BIAcore 8K, 37 C, antibody captured on Protein A chip, IL-34 in solution
Protocol: (§1) Binding affinity of anti-IL-34 monoclonal antibodies of the present disclosure to human and/or cynomolgus monkey (cyno) IL-34 may be determined by methods known in the art. Briefly, the binding affinity and kinetics of the antibody are evaluated by surface plasmon resonance using BIAcore™ 8K (Cytiva) at 37° C. […] For each cycle, 200 μL IL-34 is flowed over the immobilized antibody at 100 μL/minute, and then dissociated for 20 minutes. The chip surface is regenerated with 50 μL of glycine buffer at pH 1.5 at a flow rate of 100 μL/minute. The data are fit to a 1:1 Langmiur binding mode to derive kon, koff and to calculate KD.

cynomolgus monkey IL-34 [3] = target: T2, cynomolgus monkey IL-34 (cynomolgus monkey, UniProt G7Q1L3 21-242); assay: as above
T2 construct: It was biotinylated in the CSF1R displacement ELISA; also called cyno IL-34
T2 sequence: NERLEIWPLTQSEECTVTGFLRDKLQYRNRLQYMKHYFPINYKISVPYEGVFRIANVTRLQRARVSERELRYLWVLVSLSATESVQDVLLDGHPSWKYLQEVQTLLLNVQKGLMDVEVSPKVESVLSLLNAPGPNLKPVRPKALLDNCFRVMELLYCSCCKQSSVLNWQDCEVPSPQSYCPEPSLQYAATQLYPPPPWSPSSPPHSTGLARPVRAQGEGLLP
Protocol: as §1

human IL-34 [4] = target: T1, human IL-34; assay: competition ELISA, displacement of biotinylated human IL-34 from coated hCSF1R_Fc
Protocol: (§2) CSF1R extracellular domain proteins (hCSF1R_Fc commercially available from R&D Cat #329-MR, cynomolgus CSF1R ECD-Fc (AAA is a linker between CSF1R extracellular domain and Fc) (SEQ ID NO: 34)) can be bound to an ELISA plate at concentrations of 30 nM in order to capture soluble biotinylated IL-34 and allowed to bind for one hour. After washing and blocking plate, biotinylated IL-34 may be added, then detected via streptavidin conjugated peroxidase. Concentrations of labeled IL-34 near the 80% binding level (EC₈₀) (3.7 nM) may be used in conjunction with a range of antibody concentrations (0-100 nM) to determine concentration of antibody required to displace IL-34 from CSF1R. After 1 hr incubation, IL-34 bound to CSF1R is detected via streptavidin conjugated peroxidase. The antibodies are assayed (n=2) and the average and standard deviation at each concentration are calculated. The potency of an antibody to displace IL-34 from CSF1R is reported as IC₅₀ (nM) with the calculated confidence interval (CI) in Table 4 and Table 5.

cynomolgus monkey IL-34 [5] = target: T2, cynomolgus monkey IL-34; assay: competition ELISA, displacement of biotinylated cyno IL-34 from coated cyno CSF1R ECD-Fc
Protocol: as §2

B1: Antibody 1 (antibody, human IgG4 S228P, kappa, F234A L235A, V domains shown)
VH: EVQLLESGGGLVQPGGSLRLSCAASGFAFSSYRMSWVRQAPGKGLEWVSAISASGGKTYYADSVKGRFTISRDNSKNTLYLQMNSLRAEDTAVYYCAKRGYIWHAFDLWGRGTLVTVSS
VL: EIVLTQSPGTLSLSPGERATLSCRASQSVYSSYLAWYQQKPGQAPRLLIYGASSRATGIPDRFSGSGSGTDFTLTISRLEPEDFAVYYCQVVGSSPPFTFGGGTKVEIKR
notes: Human anti-IL-34 antibody with IgG4 PAA hinge/Fc and kappa light chain; also called Exemplified Antibody 1; exemplified antibody 1
With B1 the “IC50 (ug/ml), neutralization of human IL-34 induced luciferase reporter activity” value (human IL-34 [1]) was 0.0531 µg/mL, the Kd (human IL-34 [2]) was 0.0312 nM and the koff (human IL-34 [2]) was 0.00026 s⁻¹. It also gave a kon (human IL-34 [2]) of 8.4e+06 M⁻¹ s⁻¹, a Kd (cynomolgus monkey IL-34 [3]) of 0.0409 nM and a koff (cynomolgus monkey IL-34 [3]) of 0.0003 s⁻¹. It also gave a kon (cynomolgus monkey IL-34 [3]) of 7.9e+06 M⁻¹ s⁻¹, an IC50 (human IL-34 [4]) of 0.0274 nM and an IC50 (cynomolgus monkey IL-34 [5]) of 0.975 nM.
